Results reported in publication PMC6827878 (Cell, 2018).

Molecular target: Recombinant PP4R3β (His tagged SMEK2) (UniProt Q5MIZ7 1-849)
Assay: ITC

Chain of Recombinant PP4R3β (His tagged SMEK2) (Q5MIZ7 whole entry): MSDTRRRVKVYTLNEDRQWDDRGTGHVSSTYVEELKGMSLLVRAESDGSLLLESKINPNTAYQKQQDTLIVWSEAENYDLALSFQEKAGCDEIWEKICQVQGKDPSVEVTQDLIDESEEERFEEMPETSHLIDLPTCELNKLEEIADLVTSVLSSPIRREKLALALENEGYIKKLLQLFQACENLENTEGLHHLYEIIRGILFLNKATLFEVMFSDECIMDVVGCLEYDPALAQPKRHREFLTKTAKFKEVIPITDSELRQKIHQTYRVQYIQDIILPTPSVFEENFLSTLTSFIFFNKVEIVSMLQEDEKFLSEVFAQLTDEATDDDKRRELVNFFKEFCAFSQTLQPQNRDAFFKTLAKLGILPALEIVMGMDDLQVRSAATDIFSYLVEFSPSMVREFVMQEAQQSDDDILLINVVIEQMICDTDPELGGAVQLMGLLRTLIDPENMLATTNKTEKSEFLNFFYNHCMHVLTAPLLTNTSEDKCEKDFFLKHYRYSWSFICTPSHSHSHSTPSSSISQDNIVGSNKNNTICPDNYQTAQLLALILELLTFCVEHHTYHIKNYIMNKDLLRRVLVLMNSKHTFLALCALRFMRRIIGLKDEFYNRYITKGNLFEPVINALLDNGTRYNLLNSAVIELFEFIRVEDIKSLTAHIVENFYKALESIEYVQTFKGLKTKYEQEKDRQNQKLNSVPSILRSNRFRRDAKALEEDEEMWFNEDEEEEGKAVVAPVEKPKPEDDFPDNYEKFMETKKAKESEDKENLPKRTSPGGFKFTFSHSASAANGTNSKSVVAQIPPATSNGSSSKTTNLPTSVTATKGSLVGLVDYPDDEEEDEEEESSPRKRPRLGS

B1: GST-CT45A1 (natural protein, human, UniProt Q5HYN5 1-189, looked up)
chain: MTDKTEKVAVDPETVFKRPRECDSPSYQKRQRMALLARKQGAGDSLIAGSAMSKAKKLMTGHAIPPSQLDSQIDDFTGFSKDRMMQKPGSNAPVGGNVTSSFSGDDLECRETASSPKSQREINADIKRKLVKELRCVGQKYEKIFEMLEGVQGPTAVRKRFFESIIKEAARCMRRDFVKHLKKKLKRMI
- Kd: 370 ± 30 nM
